Source: article PMC12455584

Target: T1, scIHF-His (single-chain IHF, ihfA-linker-ihfB-6xHis) internal_change (Salmonella enterica serovar Typhimurium 14028s?) (UniProt P0A1S0)
T1 sequence: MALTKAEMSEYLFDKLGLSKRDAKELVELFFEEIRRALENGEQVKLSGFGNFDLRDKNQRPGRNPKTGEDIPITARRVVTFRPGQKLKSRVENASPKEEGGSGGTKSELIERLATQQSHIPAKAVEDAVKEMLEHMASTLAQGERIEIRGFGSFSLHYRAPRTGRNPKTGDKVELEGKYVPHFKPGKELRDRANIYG
Assay: EMSA
Settings: EMSA: 25 mM Tris pH 8, 75 mM NaCl, 10% glycerol, 0.5 mM DTT, 0.5 mM EDTA, 1 ug poly(dIdC), 0.1 mg/ml BSA, 0.87 pmol DNA in 20 ul, 37 C 10 min; gel 4-15% PAGE …

CCCTCGTGTACCATTGTTTACTTTTTGATCTAAAAATTACATCAAATGAACACAAAAAACGGTATAAAAAACGCTC (double strand) [intA promoter IHF BS(+)]
binding: binds
